Here are results for one molecule from EP1615032A1 (Kido, Hiroshi, dated 2006).

The assay concerns the target T1, purified mouse VDAC protein (mouse, UniProt Q3U6K8 2-283).
T1 construct: Used as a 100 ng/ml solution over dot-blotted ligands; also called voltage-dependent anion channel
Nature of the assay: dot blot on nitrocellulose; bound VDAC detected with anti-VDAC antibody and ECL.

B1: human microplasmin (enzyme, UniProt P00747 550-810, looked up)
chain: KLYDYCDVPQCAAPSFDCGKPQVEPKKCPGRVVGGCVAHPHSWPWQVSLRTRFGMHFCGGTLISPEWVLTAAHCLEKSPRPSSYKVILGAHQEVNLEPHVQEIEVSRLFLEPTRKDIALLKLSSPAVITDKVIPACLPSPNYVVADRTECFITGWGETQGTFGAGLLKEAQLPVIENKVCNRYEFLNGRVQSTELCAGHLAGGTDSCQGDSGGPLVCFEKDKYILQGVTSWGLGCARPNKPGVYVRVSRFVTWIEGVMRNN
notes: 50 ng dot blotted onto a nitrocellulose membrane; also called microplasmin having no Kringle domain
For B1, the binding result is on record as “no binding”.
